What all share (test): cell-based or functional assay
For assay [1], the target named is Human Somatostain Receptor 2 (SSTR2), c-myc tagged with viral glycosilation sequence, on RBL-2H3 cells (human) (UniProt P30874).
Assay [2] deals with Human Bradykinin Receptor B1 (BDKRB1), c-myc tagged with viral glycosilation sequence, on RBL-2H3 cells (human) (UniProt P46663).
Assay [3] addresses TNP-BSA conjugate (trinitrophenyl hapten conjugated to bovine serum albumin) (bovine) (UniProt P02769).
The target in assay [4] is Human Interleukin 8 Receptor (hIL8RA), on RBL-2H3 cells with human granzyme A (Sensor A) (human) (UniProt P25024).
Chain of Human Interleukin 8 Receptor (hIL8RA), on RBL-2H3 cells with human granzyme A (Sensor A) (human) (P25024 other isoform, or with tags, fused parts or gaps, form in doubt): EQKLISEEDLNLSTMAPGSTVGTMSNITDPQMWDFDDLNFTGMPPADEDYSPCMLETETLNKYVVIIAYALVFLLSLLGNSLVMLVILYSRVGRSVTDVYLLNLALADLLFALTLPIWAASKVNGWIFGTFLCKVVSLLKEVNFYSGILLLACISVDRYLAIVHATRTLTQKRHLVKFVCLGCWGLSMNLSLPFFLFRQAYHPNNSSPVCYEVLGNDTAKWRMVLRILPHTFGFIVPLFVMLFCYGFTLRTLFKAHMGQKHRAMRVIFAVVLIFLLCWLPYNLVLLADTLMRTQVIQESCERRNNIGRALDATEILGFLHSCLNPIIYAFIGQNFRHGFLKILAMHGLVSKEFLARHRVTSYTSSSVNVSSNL
In assay [5] the target is T1, human native unmodified procaspase-3 (huCasp3) (human) (UniProt P42574).
T1 sequence (looked up): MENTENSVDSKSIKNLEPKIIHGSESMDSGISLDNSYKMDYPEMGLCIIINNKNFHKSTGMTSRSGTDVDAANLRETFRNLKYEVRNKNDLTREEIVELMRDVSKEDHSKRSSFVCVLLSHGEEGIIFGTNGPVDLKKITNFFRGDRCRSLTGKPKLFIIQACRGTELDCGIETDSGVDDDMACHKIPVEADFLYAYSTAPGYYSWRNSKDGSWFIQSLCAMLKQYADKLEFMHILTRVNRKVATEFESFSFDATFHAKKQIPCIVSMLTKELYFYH

For assay [6], the target named is mutated human procaspase-3 (mut-huCasp3), amino acids 172 to 179 changed from IETDSGVD to IEPDVLME (human) (UniProt P42574).

Chain of Human Bradykinin Receptor B1 (BDKRB1), c-myc tagged with viral glycosilation sequence, on RBL-2H3 cells (human) (P46663 other isoform, or with tags, fused parts or gaps): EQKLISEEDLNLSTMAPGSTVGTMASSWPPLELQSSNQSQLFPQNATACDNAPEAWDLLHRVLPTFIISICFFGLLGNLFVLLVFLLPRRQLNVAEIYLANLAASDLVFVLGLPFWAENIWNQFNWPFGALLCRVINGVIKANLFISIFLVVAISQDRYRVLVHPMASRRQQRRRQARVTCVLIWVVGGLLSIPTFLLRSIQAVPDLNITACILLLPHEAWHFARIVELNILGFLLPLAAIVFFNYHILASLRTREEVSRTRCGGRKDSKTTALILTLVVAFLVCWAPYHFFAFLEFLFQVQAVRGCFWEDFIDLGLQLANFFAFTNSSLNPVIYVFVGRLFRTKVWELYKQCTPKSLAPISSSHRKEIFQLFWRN
Chain of Human Somatostain Receptor 2 (SSTR2), c-myc tagged with viral glycosilation sequence, on RBL-2H3 cells (human) (P30874 other isoform, or with tags, fused parts or gaps): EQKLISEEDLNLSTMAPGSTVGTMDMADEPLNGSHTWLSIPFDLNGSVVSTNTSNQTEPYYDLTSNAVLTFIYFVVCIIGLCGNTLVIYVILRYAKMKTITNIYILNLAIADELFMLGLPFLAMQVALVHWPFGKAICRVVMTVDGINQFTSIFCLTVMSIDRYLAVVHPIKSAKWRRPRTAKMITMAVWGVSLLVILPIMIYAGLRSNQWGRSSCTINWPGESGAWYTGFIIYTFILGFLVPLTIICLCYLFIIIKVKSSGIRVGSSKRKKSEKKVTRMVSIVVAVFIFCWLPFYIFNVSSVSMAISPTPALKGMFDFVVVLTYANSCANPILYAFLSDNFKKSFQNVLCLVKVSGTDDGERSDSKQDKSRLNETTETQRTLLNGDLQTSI
Chain of Human IL8 (P10145 28-99 limits assumed): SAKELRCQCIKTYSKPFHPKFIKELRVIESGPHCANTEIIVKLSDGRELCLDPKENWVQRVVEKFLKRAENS

Regarding seglitide (peptide), in assay [1], the Absorbance at maximal dilution of ELISA tested (human granzyme B sandwich ELISA of supernatant, dilution 2250, after subtraction of 0.2 blank) was determined as 2.4 absorbance and the Sensitivity (minimal amount of cells needed) was < 150 cells.
“kallinin (from UniProt P01042 380-389) (peptide)”: in assay [2], the Absorbance at maximal dilution of ELISA tested (human granzyme B sandwich ELISA of supernatant, dilution 2250, after subtraction of 0.2 blank) turned out to be 0.8 absorbance; the Sensitivity (minimal amount of cells needed) is < 150 cells; the exocytosis of granzyme B, percent of maximal at 5 minutes was > 90%; the signal to background (S/B) of released granzyme B activity, medium taken at 5 to 15 minutes lay within 20 to 22. Besides, in assay [2], the signal to background (S/B) of released granzyme B activity, medium taken at 30 minutes is 15 to 17 and the signal to background (S/B) of released granzyme B activity, medium taken at 60 minutes was in the range of 8 to 10.
For the substance “mouse IgE monoclonal antibody against trinitrophenyl hapten from IgELb4 hybridoma (ATCC TIB-141)”, in assay [3], the Fluorescence after 30 minutes at 37 C (released granzyme B, FRET substrate), TNP-BSA 1 pg/mL was found to be 35900 fluorescence; the Fluorescence after 30 minutes at 37 C (released granzyme B, FRET substrate), TNP-BSA 1 ng/mL was 34600 fluorescence; the Fluorescence after 30 minutes at 37 C (released granzyme B, FRET substrate), TNP-BSA 1 ug/mL stood at 30900 fluorescence; the Fluorescence after 30 minutes at 37 C (released granzyme B, FRET substrate), TNP-BSA 1 fg/mL came to 29800 fluorescence. The limit of detection for TNP-BSA in assay [3] was 0.1 ag/mL.
Consider “Human IL8 (from UniProt P10145 28-99) (ligand)”, for which, in assay [4], the Signal to background at 30 min (released granzyme A activity; condition 2: Sensor A alone, IL8 10 uM) was found to be 16; the Signal to background at 30 min (released granzyme A activity; condition 5: Sensor A mixed with Sensor B, IL8 10 uM and carbachol 10 uM) amounted to 12.5.
Consider “human granzyme B secreted by stably transfected RBL-2H3 cells (from UniProt P10144 21-247) (enzyme)”, for which the Signal to Background (S/B), caspase-3 treated with granzyme B against caspase-3 only in assay [5] was determined as 2.8; in assay [6], 77. For the same substance, in assay [6], the signal to background, supernatant equivalent to 5.000 cells, 384 well plate was > 20.
